Results on eight molecules are retold here after PMC4605305, “TRAP150 interacts with the RNA-binding domain of PSF and antagonizes splicing of numerous PSF-target genes in T cells” (Nucleic Acids Research, 2015).

T1: PSF exRRM2 (human, UniProt P23246 366-484)
T1 sequence: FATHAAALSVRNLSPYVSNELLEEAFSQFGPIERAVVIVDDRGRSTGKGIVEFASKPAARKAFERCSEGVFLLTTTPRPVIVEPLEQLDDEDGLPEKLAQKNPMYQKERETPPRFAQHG

T2: PSF exRRMs (human, UniProt P23246 266-484)
T2 sequence: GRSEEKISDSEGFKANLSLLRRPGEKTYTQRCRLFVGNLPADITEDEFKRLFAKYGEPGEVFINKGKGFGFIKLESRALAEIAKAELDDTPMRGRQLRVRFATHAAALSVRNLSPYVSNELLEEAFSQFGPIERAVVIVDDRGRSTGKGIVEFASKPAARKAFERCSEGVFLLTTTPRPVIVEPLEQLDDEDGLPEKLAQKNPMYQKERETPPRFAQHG

T3: PSF exRRM1 (human, UniProt P23246 266-365)
T3 sequence: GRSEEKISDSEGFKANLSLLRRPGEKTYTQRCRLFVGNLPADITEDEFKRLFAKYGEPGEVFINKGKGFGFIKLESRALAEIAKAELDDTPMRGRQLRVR

T4: HisFLAG-PSF exRRMs (266-484) (UniProt P23246 266-484)
T4 construct: also called HisFLAG-exRRMs; HFexRRM1+2; source: E. coli Rosetta(DE3)pLysS, purified (Ni-NTA, SEC); not shown: His6, N-terminal, kept; FLAG, N-terminal, kept
T4 sequence (looked up): T2 sequence

T5: HisFLAG-PSF full length (UniProt P23246 1-707)
T5 construct: PSF (SFPQ), full length; pet15b with an inserted FLAG tag; also called PSF-FL; full length His-tagged PSF; source: E. coli Rosetta(DE3)pLysS, purified (Ni-NTA, SEC); not shown: His6, N-terminal, kept; FLAG, N-terminal, kept
T5 sequence (looked up): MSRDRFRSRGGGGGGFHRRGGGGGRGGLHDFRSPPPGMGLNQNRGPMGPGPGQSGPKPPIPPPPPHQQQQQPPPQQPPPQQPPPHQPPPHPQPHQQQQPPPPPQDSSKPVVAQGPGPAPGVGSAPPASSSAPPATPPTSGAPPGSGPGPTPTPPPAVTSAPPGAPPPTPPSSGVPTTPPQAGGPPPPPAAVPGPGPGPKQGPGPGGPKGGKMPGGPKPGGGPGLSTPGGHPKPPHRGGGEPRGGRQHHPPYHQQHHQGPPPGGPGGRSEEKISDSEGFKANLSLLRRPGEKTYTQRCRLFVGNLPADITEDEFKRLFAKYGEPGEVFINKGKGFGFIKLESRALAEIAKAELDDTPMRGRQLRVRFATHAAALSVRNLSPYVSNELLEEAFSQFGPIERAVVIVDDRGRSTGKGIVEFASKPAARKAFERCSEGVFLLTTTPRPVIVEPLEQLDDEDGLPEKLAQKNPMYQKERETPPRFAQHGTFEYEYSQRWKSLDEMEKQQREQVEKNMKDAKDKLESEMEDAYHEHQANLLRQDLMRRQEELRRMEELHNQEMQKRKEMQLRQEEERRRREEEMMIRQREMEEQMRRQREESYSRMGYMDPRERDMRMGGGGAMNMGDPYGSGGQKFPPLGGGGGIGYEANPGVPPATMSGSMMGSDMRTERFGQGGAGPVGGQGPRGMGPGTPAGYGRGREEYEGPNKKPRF

B1: HisFLAG-PSF ΔRRM1 (natural protein)
chain: MSRDRFRSRGGGGGGFHRRGGGGGRGGLHDFRSPPPGMGLNQNRGPMGPGPGQSGPKPPIPPPPPHQQQQQPPPQQPPPQQPPPHQPPPHPQPHQQQQPPPPPQDSSKPVVAQGPGPAPGVGSAPPASSSAPPATPPTSGAPPGSGPGPTPTPPPAVTSAPPGAPPPTPPSSGVPTTPPQAGGPPPPPAAVPGPGPGPKQGPGPGGPKGGKMPGGPKPGGGPGLSTPGGHPKPPHRGGGEPRGGRQHHPPYHQQHHQGPPPGGPGGRSEEKISDSEGFKANLSLLRRPGEKTYTQRCRGGSGHMATHAAALSVRNLSPYVSNELLEEAFSQFGPIERAVVIVDDRGRSTGKGIVEFASKPAARKAFERCSEGVFLLTTTPRPVIVEPLEQLDDEDGLPEKLAQKNPMYQKERETPPRFAQHGTFEYEYSQRWKSLDEMEKQQREQVEKNMKDAKDKLESEMEDAYHEHQANLLRQDLMRRQEELRRMEELHNQEMQKRKEMQLRQEEERRRREEEMMIRQREMEEQMRRQREESYSRMGYMDPRERDMRMGGGGAMNMGDPYGSGGQKFPPLGGGGGIGYEANPGVPPATMSGSMMGSDMRTERFGQGGAGPVGGQGPRGMGPGTPAGYGRGREEYEGPNKKPRF
notes: PSF (SFPQ) residues 1-298; linker joining the N- and C-terminal portions; PSF (SFPQ) residues 367-707; source: E. coli Rosetta(DE3)pLysS, purified (Ni-NTA, SEC); not shown: His6, N-terminal, kept; FLAG, N-terminal, kept
B2: MKK7 (ssRNA)
RNA: CCUCCUCGUUUAUGAUUUGAUUUCUUUUCUUUUGGACGAAUCGGUCGUUUCUGUUGUGAUUUAUCGUGGUGUUGUUUUUUUCUUCCUUUUCCCCAUCCAG
B3: GST-TRAP150 686–755 (PSF-interacting domain, PID) (domain or fragment, UniProt Q9Y2W1 686-755, looked up)
chain: FRKHGLAHDEMKSPREPGYKAEGKYKDDPVDLRLDIERRKKHKERDLKRGKSRESVDSRDSSHSRERSAE
notes: also called GST-TRAP(PID); TRAP150 PID; source: E. coli Rosetta(DE3)pLysS, purified (glutathione sepharose, SEC); not shown: GST, N-terminal, kept
B4: Gb1-tagged TRAP150 686–755 (TRAP-PID) (domain or fragment, UniProt Q9Y2W1 686-755, looked up)
chain: B3 chain
notes: 6xHis + GB1 fusion vector pGβ1; also called Gb1-tagged construct of the TRAP-PID; source: E. coli Rosetta(DE3)pLysS, purified (Ni-NTA, SEC)
B5: GST-TRAPΔN (TRAP150 266-955) (domain or fragment, UniProt Q9Y2W1 266-955, looked up)
chain: RPSPVPKPSPPLSSTSQMGSTLPSGAGYQSGTHQGQFDHGSGSLSPSKKSPVGKSPPSTGSTYGSSQKEESAASGGAAYTKRYLEEQKTENGKDKEQKQTNTDKEKIKEKGSFSDTGLGDGKMKSDSFAPKTDSEKPFRGSQSPKRYKLRDDFEKKMADFHKEEMDDQDKDKAKGRKESEFDDEPKFMSKVIGANKNQEEEKSGKWEGLVYAPPGKEKQRKTEELEEESFPERSKKEDRGKRSEGGHRGFVPEKNFRVTAYKAVQEKSSSPPPRKTSESRDKLGAKGDFPTGKSSFSITREAQVNVRMDSFDEDLARPSGLLAQERKLCRDLVHSNKKEQEFRSIFQHIQSAQSQRSPSELFAQHIVTIVHHVKEHHFGSSGMTLHERFTKYLKRGTEQEAAKNKKSPEIHRRIDISPSTFRKHGLAHDEMKSPREPGYKAEGKYKDDPVDLRLDIERRKKHKERDLKRGKSRESVDSRDSSHSRERSAEKTEKTHKGSKKQKKHRRARDRSRSSSSSSQSSHSYKAEEYTEETEEREESTTGFDKSRLGTKDFVGPSERGGGRARGTFQFRARGRGWGRGNYSGNNNNNSNNDFQKRNREEEWDPEYTPKSKKYYLHDDREGEGSDKWVSRGRGRGAFPRGRGRFMFRKSSTSPKWAHDKFSGEEGEIEDDESGTENREEKDNIQPTTE
notes: pGEX-6-P1; also called GST-TRAP150ΔN; TRAP150-ΔN; source: E. coli Rosetta(DE3)pLysS, purified (glutathione sepharose, SEC); not shown: GST, N-terminal, kept
B6: SRL-1 (ssRNA)
RNA: AACCAAGAGGUUUCUCGCGUAUUUCUCUCAUUUUUUUACCCAUUUUACAAAUUUUUUUUGCUAUUUGAGCCAUAGUACCCAUUAAUAGGUCUCGUCCAUUCCCUUGUUUUUUUUUUAUUGUUUCAAUUACACUACAUAAUUAAAAAUCACAUCACUUUCACUCUCACCUUAGUCGUUCUUUAUCAACCAAAAAUAAAAAAAUGCUUCAAUCCGUUGUCUU
B7: GST-TRAP150 580–755 (domain or fragment, UniProt Q9Y2W1 580-755, looked up)
chain: LARPSGLLAQERKLCRDLVHSNKKEQEFRSIFQHIQSAQSQRSPSELFAQHIVTIVHHVKEHHFGSSGMTLHERFTKYLKRGTEQEAAKNKKSPEIHRRIDISPSTFRKHGLAHDEMKSPREPGYKAEGKYKDDPVDLRLDIERRKKHKERDLKRGKSRESVDSRDSSHSRERSAE
notes: source: E. coli Rosetta(DE3)pLysS, purified (glutathione sepharose, SEC); not shown: GST, N-terminal, kept
B8: HisFLAG-PSF ΔRRM2 (natural protein)
chain: MSRDRFRSRGGGGGGFHRRGGGGGRGGLHDFRSPPPGMGLNQNRGPMGPGPGQSGPKPPIPPPPPHQQQQQPPPQQPPPQQPPPHQPPPHPQPHQQQQPPPPPQDSSKPVVAQGPGPAPGVGSAPPASSSAPPATPPTSGAPPGSGPGPTPTPPPAVTSAPPGAPPPTPPSSGVPTTPPQAGGPPPPPAAVPGPGPGPKQGPGPGGPKGGKMPGGPKPGGGPGLSTPGGHPKPPHRGGGEPRGGRQHHPPYHQQHHQGPPPGGPGGRSEEKISDSEGFKANLSLLRRPGEKTYTQRCRLFVGNLPADITEDEFKRLFAKYGEPGEVFINKGKGFGFIKLESRALAEIAKAELDDTPMRGRQLRVRFATHAGGSGHMLEQLDDEDGLPEKLAQKNPMYQKERETPPRFAQHGTFEYEYSQRWKSLDEMEKQQREQVEKNMKDAKDKLESEMEDAYHEHQANLLRQDLMRRQEELRRMEELHNQEMQKRKEMQLRQEEERRRREEEMMIRQREMEEQMRRQREESYSRMGYMDPRERDMRMGGGGAMNMGDPYGSGGQKFPPLGGGGGIGYEANPGVPPATMSGSMMGSDMRTERFGQGGAGPVGGQGPRGMGPGTPAGYGRGREEYEGPNKKPRF
notes: PSF (SFPQ) residues 1-370; linker joining the N- and C-terminal portions; PSF (SFPQ) residues 450-707; source: E. coli Rosetta(DE3)pLysS, purified (Ni-NTA, SEC); not shown: His6, N-terminal, kept; FLAG, N-terminal, kept

Data set [1] has as its target B5. Briefly: pull-down; 40 ug GST-tagged bait on glutathione sepharose 4B beads; prey incubated 1.5 h at 4°C in PBS; washes with PBS supplemented with 300 mM NaCl; western blot. As to conditions: both partners purified.
The target of a further data set is T1, PSF exRRM2. Briefly: EMSA; UV crosslinking: 12 mM Tris pH 7.5, 120 mM NaCl, 3 mM MgCl2, 1 mM ATP, 20 mM phosphocreatine, 0.1 mM EDTA, 12% glycerol, 1.3% PVA, 25 ng/ul yeast tRNA, 20 ng/ul. As to conditions: protein: recombinant; tags: 6xHis-FLAG N-term; label: uniform 32P. Background: Mobility shift assays separate free from complexed probe on a gel.
The target of a further data set is T2, PSF exRRMs. The description is as above. Particulars: protein: recombinant; tags: 6xHis-FLAG N-term; label: uniform 32P.
The next data set addresses T3, PSF exRRM1. Briefly: EMSA; unmeasurable affinity; UV crosslinking: 12 mM Tris pH 7.5, 120 mM NaCl, 3 mM MgCl2, 1 mM ATP, 20 mM phosphocreatine, 0.1 mM EDTA, 12% glycerol, 1.3% PVA, 25 ng/ul yeast tRNA, 20 ng/ul. As to conditions: protein: recombinant; tags: 6xHis-FLAG N-term; label: uniform 32P.
For data set [2], the target named is T4, HisFLAG-PSF exRRMs (266-484). Briefly: pull-down; 40 ug GST-tagged bait on glutathione sepharose 4B beads; prey incubated 1.5 h at 4°C in PBS; washes with PBS supplemented with 300 mM NaCl; western blot. Particulars: both partners purified. In general terms: In western blotting, separated proteins are transferred to a membrane and probed.
Data set [3] shares this target. Briefly: pull-down; Gb1-tagged TRAP150 686-755 precipitated with IgG beads; HisFLAG-exRRMs detected. Particulars: both partners purified.
The target in the next data set is T5, HisFLAG-PSF full length. Briefly: pull-down; 40 ug GST-tagged bait on glutathione sepharose 4B beads; prey incubated 1.5 h at 4°C in PBS; washes with PBS supplemented with 300 mM NaCl; western blot. Particulars: both partners purified.

Regarding B1, the binding result in data set [1] was “binds”.
For the molecule B2, the results for the binding result with PSF exRRM2, with PSF exRRMs and in the data set with PSF exRRM1 were “binds”, “binds” and “no binding”, respectively.
With B3, the binding result in data set [2] is reported as “binds”.
On to B4, for which the binding result in data set [3] was “binds”.
B5: the binding result in the data set with HisFLAG-PSF full length is on record as “binds”.
Take B6: the binding result with PSF exRRM2 is listed as “binds”; with PSF exRRMs, “binds”; in the data set with PSF exRRM1, “no binding”.
B7: the binding result in data set [2] is “binds”.
As for B8, the binding result in data set [1] is on record as “binds”.
